Here are results for one molecule from doi:10.1101/2020.12.09.418111.

In the data set the target is T1, Kaiso without BTB/POZ domain, GST fusion (UniProt Q86T24 113-672).
T1 sequence: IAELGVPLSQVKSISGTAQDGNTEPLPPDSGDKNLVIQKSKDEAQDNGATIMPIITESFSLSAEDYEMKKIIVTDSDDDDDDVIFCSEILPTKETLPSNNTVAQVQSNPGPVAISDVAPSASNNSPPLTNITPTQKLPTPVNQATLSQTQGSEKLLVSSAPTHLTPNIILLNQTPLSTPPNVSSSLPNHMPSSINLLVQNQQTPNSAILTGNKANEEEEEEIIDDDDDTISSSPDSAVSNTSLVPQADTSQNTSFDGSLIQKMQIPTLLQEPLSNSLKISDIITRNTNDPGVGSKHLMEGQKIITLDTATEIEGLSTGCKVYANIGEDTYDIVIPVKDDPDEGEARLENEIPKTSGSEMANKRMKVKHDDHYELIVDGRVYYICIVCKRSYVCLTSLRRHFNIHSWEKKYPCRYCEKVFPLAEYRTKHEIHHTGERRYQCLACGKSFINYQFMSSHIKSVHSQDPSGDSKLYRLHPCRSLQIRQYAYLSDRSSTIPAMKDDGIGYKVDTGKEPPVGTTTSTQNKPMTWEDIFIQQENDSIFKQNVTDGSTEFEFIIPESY
Briefly: EMSA.

B1: met-SM-FAM / met-SM methylated probe (dsDNA)
DNA 1: GCAGCCGCGCCCAACGCTGGGAGATC
DNA 2: TCCCCAGCGTTGGGCGCGGCTGCGATC
modifications: 5-methylcytosine (printed meC) at strand 1 positions 6, 8, 15 and strand 2 positions 8, 15, 17
Turning to B1, the binding result was “binds”.
